Reference: doi:10.1101/850305 (bioRxiv, 2019)

Molecular target: the molecule itself
Assay: crystal structure

B1: E. coli LpxA UDP-N-acetylglucosamine acyltransferase (enzyme, UniProt P0A722 1-262, looked up)
chain: MIDKSAFVHPTAIVEEGASIGANAHIGPFCIVGPHVEIGEGTVLKSHVVVNGHTKIGRDNEIYQFASIGEVNQDLKYAGEPTRVEIGDRNRIRESVTIHRGTVQGGGLTKVGSDNLLMINAHIAHDCTVGNRCILANNATLAGHVSVDDFAIIGGMTAVHQFCIIGAHVMVGGCSGVAQDVPPYVIAQGNHATPFGVNIEGLKRRGFSREAITAIRNAYKLIYRSGKTLDEVKPEIAELAETYPEVKAFTDFFARSTRGLIR
Question: B1 was tested. Which “stoichiometry N” value did it give?
Answer: 3
